Patent EP1758924B1 (Council of Scientific and Industrial Research, dated 2005)

Target: T1, Hsp16.3 (16 kDa alpha-crystallin like heat-shock protein of Mycobacterium tuberculosis), recombinant, 6 X His … (Mycobacterium tuberculosis)
T1 construct: also called M. tuberculosis Acr (Hsp16.3) protein
Assay: reverse phage ELISA on coated Hsp16.3, anti-M13-HRP, A405

B1: phage clone displaying peptide sequence Seq ID 21 (Tyr-Pro-His-His-Phe-Lys-His-Arg-His-Ile-Pro-Ile), from the Ph.D.-12 library on bacteriophage M13 (peptide)
peptide: YPHHFKHRHIPI
notes: Tested as whole phage in the reverse phage ELISA; not shown: fused to an M13 coat protein (spacer Gly-Gly-Gly-Ser is named)
fold binding over BSA background: ~3 fold
